Legend:
[1] = Western blot, N-terminal cleavage, CHO-ldlD cells
[2] = Western blot, N-terminal cleavage, rat cardiomyocytes; conditions: glycan lost
[3] = Western blot, cleavage at R31↓L32; HEK293, CHO-K1, NRVM; conditions: glycan lost; control: S49 (WT) variant
[4] = Western blot, P52↓L53 cleavage in isolated HEK293i membranes; conditions: glycan lost; control: S49 (WT) variant
[5] = Flow cytometry, surface full-length receptor, cMyc antibody, HEK293i; conditions: control: S49 (WT) variant
[6] = molecular target: human β1-adrenergic receptor G49G389 variant (human) (UniProt P08588)
[7] = molecular target: human β1-adrenergic receptor G49R389 variant (human) (UniProt P08588)
[8] = molecular target: human β1-adrenergic receptor S49G389 variant (human) (UniProt P08588)
human β1-adrenergic receptor S49G389 variant (human), sequence (P08588 whole entry, change not shown): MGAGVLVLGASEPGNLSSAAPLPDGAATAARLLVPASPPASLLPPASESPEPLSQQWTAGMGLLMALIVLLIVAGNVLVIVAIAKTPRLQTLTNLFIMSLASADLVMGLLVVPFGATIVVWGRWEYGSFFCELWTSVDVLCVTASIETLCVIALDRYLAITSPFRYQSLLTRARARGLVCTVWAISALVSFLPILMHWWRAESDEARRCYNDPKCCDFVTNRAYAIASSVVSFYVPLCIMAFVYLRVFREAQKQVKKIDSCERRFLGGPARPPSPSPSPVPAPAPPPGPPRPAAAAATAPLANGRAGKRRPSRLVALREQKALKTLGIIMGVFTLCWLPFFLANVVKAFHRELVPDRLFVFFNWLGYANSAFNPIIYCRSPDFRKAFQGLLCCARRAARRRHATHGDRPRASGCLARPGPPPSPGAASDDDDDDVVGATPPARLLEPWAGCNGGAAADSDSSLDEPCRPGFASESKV

β-arrestin2 fused to Renilla luciferaseII, sequence (P32121 whole entry, the tested form may be a part): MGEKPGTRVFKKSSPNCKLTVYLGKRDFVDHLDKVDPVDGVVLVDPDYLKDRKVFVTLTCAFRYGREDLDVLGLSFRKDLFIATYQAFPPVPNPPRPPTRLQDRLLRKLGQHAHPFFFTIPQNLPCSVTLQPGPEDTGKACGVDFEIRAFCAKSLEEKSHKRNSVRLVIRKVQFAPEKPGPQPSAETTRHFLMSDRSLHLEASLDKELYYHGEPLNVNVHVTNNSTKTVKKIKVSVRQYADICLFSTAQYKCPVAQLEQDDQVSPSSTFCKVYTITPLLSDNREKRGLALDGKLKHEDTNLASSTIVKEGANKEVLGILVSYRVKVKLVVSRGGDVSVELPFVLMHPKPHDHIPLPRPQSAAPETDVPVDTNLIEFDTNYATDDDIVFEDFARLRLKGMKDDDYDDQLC
human β1-adrenergic receptor G49G389 variant (human), sequence (P08588 whole entry S49G): as the sequence (P08588 whole entry, change not shown) above, with S49G counted along it
human β1-adrenergic receptor G49R389 variant (human), sequence (P08588 other isoform, or with tags, fused parts or gaps S49G | R389 (the paper's WT allele at rs1801253) | mutant): as the sequence (P08588 whole entry, change not shown) above, with S49G, G389R counted along it

In the case of “human β1‐adrenergic receptor (hβ1AR): GalNAc only (Tn)”, the “other: proteolytic processing” value ([1]; glycan changed form, control: S49 (WT) in CHO-ldlD with Gal + GalNAc) is reported as “increases” and the “other: proteolytic processing” value ([1]; glycan changed form, control: T29 variant in CHO-ldlD with Gal + GalNAc) is reported as “no change”.
For “human β1‐adrenergic receptor (hβ1AR): Galnt2 KO”, the “other: proteolytic processing” value ([2]; control: S49 (WT) in WT NRVMs) was “increases” and the “other: proteolytic processing” value ([2]; control: T29 variant in WT NRVMs) was “no change”.
In the case of “human β1‐adrenergic receptor (hβ1AR): G49 variant”, the “other: proteolytic processing” value [3] is reported as “no change”, the “other: proteolytic processing” value [4] is reported as “increases” and the expression_or_secretion ([5]; glycan lost) is reported as “no change”.
“β-arrestin2 fused to Renilla luciferaseII (from UniProt P32121 1-409) (natural protein)” showed an E max of isoproterenol-induced β-arrestin2 recruitment to the plasma membrane, enhanced bystander BRET (β-arrestin2-RlucII with rGFP-CAAX) in HEK293S cells, normalised to S49R389 [6] of 83.3 % WT E max, an E max of isoproterenol-induced β-arrestin2 recruitment to the plasma membrane, enhanced bystander BRET (β-arrestin2-RlucII with rGFP-CAAX) in HEK293S cells, normalised to S49R389 [7] of 97.8 % WT E max and an E max of isoproterenol-induced β-arrestin2 recruitment to the plasma membrane, enhanced bystander BRET (β-arrestin2-RlucII with rGFP-CAAX) in HEK293S cells, normalised to S49R389 [8] of 89.4 % WT E max.
With “human β1‐adrenergic receptor (hβ1AR): T29 variant” the expression_or_secretion ([5]; glycan gained) was “increases”.
For “human β1‐adrenergic receptor (hβ1AR): no GalNAc, no Gal”, the “other: proteolytic processing” value ([1]; glycan lost, control: S49 (WT) in CHO-ldlD with Gal + GalNAc) was “increases”.
